For 1 molecule, Kd results are on record in PMC4399976 (The Biochemical journal, 2015).

For the assay, the target named is wild-type (WT) proMMP-9 trimer (reduction-sensitive homomultimer) (human, UniProt P14780 20-707). In words: SPR. On the technique in general: SPR reads the build-up and loss of mass on a sensor chip optically.
Sequence of wild-type (WT) proMMP-9 trimer (reduction-sensitive homomultimer) (P14780 20-707): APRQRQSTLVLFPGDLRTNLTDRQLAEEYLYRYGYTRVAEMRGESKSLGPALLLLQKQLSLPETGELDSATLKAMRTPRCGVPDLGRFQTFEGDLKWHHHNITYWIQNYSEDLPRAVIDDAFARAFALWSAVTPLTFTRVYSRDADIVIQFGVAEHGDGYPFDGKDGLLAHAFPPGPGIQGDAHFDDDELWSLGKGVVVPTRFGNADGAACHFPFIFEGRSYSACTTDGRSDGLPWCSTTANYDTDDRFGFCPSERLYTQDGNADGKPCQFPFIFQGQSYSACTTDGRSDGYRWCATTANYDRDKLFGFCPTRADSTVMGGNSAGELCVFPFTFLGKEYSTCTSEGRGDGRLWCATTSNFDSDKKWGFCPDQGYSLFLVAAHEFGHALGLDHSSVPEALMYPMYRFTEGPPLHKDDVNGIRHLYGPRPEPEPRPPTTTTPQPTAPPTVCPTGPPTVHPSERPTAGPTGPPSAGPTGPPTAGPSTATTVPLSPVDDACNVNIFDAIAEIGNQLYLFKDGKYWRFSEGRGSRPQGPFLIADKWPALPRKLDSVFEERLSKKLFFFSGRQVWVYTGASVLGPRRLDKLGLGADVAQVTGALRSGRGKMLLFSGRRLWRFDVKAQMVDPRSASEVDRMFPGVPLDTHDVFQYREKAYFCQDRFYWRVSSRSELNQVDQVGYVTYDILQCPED

B1: tissue inhibitor of metalloproteinases-1 (TIMP-1), recombinant human (natural protein)
chain: not shown
On to B1, for which the Kd worked out at 0.4 nM.

The Kd is the equilibrium constant for the complex coming apart. A higher Kd goes with lower affinity.
